From US20130315910A1 (Xencor, published 2013)
Where a chain is given by its changes, count along the chain named. In names and notes the source's numbering stands.

B1: G236S (antibody, human IgG1, kappa)
heavy: not shown
light: DIVMTQSPATLSLSPGERATLSCRSSKSLQNVNGNTYLYWFQQKPGQSPQLLIYRMSNLNSGVPDRFSGSGSGTEFTLTISSLEPEDFAVYYCMQHLEYPITFGAGTKLEIKRTVAAPSVFIFPPSDEQLKSGTASVVCLLNNFYPREAKVQWKVDNALQSGNSQESVTEQDSKDSTYSLSSTLTLSKADYEKHKVYACEVTHQGLSSPVTKSFNRGEC
notes: HuAM4G7 anti-CD19 IgG1 (m1) with this Fc substitution, EU index; copies: 2 + 2
B2: S239D/S267E/L328F (antibody, human IgG1, kappa)
heavy: EVQLVESGGGLVKPGGSLKLSCAASGYTFTSYVMHWVRQAPGKGLEWIGYINPYNDGTKYNEKFQGRVTISSDKSISTAYMELSSLRSEDTAMYYCARGTYYYGTRVFDYWGQGTLVTVSSASTKGPSVFPLAPSSKSTSGGTAALGCLVKDYFPEPVTVSWNSGALTSGVHTFPAVLQSSGLYSLSSVVTVPSSSLGTQTYICNVNHKPSNTKVDKKVEPKSCDKTHTCPPCPAPELLGGPDVFLFPPKPKDTLMISRTPEVTCVVVDVEHEDPEVKFNWYVDGVEVHNAKTKPREEQYNSTYRVVSVLTVLHQDWLNGKEYKCKVSNKAFPAPIEKTISKAKGQPREPQVYTLPPSREEMTKNQVSLTCLVKGFYPSDIAVEWESNGQPENNYKTTPPVLDSDGSFFLYSKLTVDKSRWQQGNVFSCSVMHEALHNHYTQKSLSLSPGK
light: B1 light
notes: HuAM4G7 anti-CD19 IgG1 (m1) with these Fc substitutions, EU index; copies: 2 + 2
B3: S267E/A327D (antibody, human IgG1, kappa)
heavy: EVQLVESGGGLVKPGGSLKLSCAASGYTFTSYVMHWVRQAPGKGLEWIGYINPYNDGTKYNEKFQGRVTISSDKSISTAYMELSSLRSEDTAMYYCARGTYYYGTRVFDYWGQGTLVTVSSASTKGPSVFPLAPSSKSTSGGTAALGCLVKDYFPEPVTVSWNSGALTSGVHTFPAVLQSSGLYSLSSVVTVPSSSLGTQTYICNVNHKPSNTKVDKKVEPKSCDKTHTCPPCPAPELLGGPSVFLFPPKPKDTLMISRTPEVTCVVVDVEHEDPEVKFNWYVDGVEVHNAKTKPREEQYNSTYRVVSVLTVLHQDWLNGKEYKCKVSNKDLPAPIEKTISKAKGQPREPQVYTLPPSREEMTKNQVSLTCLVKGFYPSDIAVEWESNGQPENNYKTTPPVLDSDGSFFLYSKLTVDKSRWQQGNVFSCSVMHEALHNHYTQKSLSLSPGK
light: B1 light
notes: as for B2
B4: S267E/H268E/L328F (antibody, human IgG1, kappa)
heavy: B2 heavy with D243S, H272E
light: B1 light
notes: as for B2
B5: A327G (antibody, human IgG1, kappa)
heavy: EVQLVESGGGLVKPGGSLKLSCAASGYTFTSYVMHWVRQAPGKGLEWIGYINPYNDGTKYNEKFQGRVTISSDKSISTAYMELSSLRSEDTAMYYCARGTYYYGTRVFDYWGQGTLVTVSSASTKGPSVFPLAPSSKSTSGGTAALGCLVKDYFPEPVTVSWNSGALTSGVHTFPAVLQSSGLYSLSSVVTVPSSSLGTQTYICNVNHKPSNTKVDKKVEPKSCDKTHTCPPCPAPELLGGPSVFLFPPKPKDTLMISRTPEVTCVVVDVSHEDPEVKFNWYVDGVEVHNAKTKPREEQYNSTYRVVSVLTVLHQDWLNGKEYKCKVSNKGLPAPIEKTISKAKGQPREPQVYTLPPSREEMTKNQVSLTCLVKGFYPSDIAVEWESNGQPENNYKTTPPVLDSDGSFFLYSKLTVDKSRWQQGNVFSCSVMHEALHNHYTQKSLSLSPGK
light: B1 light
notes: as for B1
B6: D265E (antibody, human IgG1, kappa)
heavy: not shown
light: B1 light
notes: as for B1
B7: H268N (antibody, human IgG1, kappa)
heavy: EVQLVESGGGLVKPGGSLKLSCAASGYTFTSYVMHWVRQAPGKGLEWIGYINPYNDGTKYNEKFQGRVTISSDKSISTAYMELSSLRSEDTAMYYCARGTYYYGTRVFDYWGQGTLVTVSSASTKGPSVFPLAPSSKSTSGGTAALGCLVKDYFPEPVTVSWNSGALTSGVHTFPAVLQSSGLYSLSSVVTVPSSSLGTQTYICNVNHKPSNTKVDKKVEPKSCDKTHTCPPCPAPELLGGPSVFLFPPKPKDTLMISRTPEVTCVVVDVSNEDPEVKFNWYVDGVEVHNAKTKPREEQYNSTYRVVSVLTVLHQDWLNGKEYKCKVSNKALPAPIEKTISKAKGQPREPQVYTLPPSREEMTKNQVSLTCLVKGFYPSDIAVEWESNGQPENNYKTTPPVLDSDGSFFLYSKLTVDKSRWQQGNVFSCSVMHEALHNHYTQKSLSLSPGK
light: B1 light
notes: as for B1
B8: H268Q (antibody, human IgG1, kappa)
heavy: not shown
light: B1 light
notes: as for B1
B9: S239N (antibody, human IgG1, kappa)
heavy: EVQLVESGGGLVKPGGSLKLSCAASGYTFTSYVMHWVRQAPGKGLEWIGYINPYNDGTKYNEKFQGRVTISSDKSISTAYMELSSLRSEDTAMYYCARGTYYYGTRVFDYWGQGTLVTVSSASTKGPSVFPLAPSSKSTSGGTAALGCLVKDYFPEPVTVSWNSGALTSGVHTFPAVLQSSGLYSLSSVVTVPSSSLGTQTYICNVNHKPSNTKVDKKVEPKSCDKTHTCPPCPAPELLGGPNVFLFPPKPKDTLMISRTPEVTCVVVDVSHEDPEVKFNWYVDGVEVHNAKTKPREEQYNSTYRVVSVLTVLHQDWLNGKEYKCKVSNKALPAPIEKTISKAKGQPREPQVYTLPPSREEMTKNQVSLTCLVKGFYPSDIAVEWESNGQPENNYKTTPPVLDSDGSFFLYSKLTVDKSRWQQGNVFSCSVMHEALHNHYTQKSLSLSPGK
light: B1 light
notes: as for B1
B10: S239Q (antibody, human IgG1, kappa)
heavy: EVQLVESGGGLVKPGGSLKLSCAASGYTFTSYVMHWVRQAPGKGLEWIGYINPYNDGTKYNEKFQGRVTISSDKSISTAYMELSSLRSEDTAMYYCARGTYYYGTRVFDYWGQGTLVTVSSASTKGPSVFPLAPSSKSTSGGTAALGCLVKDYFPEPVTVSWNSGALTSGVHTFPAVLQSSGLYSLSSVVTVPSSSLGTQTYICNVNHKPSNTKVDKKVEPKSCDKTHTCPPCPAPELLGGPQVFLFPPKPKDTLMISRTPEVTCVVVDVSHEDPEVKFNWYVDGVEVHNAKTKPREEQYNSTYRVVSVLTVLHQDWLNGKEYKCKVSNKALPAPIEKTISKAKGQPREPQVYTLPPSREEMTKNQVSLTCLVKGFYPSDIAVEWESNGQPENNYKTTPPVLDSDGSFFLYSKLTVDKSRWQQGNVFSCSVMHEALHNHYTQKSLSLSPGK
light: B1 light
notes: as for B1
B11: H268D/A327D (antibody, human IgG1, kappa)
heavy: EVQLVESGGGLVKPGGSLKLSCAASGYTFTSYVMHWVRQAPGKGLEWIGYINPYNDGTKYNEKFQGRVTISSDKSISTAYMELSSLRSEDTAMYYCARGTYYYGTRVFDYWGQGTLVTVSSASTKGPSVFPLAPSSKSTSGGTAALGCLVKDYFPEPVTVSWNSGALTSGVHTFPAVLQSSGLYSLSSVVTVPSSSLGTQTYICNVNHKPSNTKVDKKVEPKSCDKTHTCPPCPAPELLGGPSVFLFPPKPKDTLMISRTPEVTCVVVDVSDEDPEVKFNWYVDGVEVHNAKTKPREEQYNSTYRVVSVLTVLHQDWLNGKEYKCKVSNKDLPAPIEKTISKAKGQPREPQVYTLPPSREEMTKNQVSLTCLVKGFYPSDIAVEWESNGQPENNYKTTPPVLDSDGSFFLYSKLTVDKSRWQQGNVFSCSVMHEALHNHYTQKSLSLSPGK
light: B1 light
notes: as for B2
B12: L235D/S239D (antibody, human IgG1, kappa)
heavy: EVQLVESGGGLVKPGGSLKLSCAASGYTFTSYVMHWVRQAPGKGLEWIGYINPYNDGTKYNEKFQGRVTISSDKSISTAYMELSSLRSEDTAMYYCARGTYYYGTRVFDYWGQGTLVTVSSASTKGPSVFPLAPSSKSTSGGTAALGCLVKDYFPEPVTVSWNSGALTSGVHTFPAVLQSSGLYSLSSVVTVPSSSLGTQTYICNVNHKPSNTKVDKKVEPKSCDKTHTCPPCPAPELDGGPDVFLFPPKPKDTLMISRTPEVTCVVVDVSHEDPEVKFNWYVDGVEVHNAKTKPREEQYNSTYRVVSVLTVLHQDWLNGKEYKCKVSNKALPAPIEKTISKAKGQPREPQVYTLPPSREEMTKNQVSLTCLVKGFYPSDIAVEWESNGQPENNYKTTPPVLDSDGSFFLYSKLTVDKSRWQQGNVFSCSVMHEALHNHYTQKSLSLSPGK
light: B1 light
notes: as for B2
B13: S239D/H268D (antibody, human IgG1, kappa)
heavy: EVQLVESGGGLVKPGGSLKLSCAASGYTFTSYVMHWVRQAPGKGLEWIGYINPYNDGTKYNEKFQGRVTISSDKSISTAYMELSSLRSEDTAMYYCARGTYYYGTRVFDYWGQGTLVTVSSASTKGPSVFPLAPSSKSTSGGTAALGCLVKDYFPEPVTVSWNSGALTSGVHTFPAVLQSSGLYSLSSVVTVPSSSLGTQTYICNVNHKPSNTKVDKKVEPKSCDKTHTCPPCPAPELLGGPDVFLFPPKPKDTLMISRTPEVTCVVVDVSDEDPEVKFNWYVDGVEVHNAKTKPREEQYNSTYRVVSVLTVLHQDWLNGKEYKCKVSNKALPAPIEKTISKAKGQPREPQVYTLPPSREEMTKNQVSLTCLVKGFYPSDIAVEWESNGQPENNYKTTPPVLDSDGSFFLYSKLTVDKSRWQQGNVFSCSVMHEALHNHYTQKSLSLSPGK
light: B1 light
notes: as for B2
B14: S239D/S267D (antibody, human IgG1, kappa)
heavy: not shown
light: B1 light
notes: as for B2
B15: S267D/H268D (antibody, human IgG1, kappa)
heavy: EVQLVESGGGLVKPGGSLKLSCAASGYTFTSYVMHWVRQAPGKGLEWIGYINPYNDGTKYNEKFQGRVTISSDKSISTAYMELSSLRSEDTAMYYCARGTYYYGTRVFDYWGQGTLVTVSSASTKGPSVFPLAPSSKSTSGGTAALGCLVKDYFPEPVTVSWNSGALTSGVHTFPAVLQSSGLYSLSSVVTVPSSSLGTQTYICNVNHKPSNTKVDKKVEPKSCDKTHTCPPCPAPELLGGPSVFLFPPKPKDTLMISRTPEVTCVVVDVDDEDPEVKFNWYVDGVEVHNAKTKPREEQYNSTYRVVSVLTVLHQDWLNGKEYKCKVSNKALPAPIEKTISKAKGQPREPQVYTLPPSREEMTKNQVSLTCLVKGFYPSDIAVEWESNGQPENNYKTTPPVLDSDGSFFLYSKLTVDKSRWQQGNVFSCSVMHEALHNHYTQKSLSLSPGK
light: B1 light
notes: as for B2
B16: S267E/L328Q (antibody, human IgG1, kappa)
heavy: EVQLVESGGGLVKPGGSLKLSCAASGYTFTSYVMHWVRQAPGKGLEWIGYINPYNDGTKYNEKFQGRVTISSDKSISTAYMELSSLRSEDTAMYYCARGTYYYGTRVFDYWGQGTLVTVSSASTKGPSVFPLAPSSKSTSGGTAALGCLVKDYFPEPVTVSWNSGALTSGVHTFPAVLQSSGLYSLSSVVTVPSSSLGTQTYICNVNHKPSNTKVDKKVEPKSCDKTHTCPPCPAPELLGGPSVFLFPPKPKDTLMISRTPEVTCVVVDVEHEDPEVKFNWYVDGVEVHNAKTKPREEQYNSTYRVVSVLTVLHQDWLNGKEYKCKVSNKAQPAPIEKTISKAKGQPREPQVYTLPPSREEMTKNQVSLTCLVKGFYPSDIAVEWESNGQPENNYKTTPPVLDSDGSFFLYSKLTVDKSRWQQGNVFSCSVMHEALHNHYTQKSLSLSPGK
light: B1 light
notes: as for B2

These binders were tested against T1, human FcγRIIa (131R), His- and GST-tagged (human, UniProt P12318 34-217) (assay: SPR).
T1 construct: Expressed in HEK293T cells, purified by nickel chromatography; also called R131 FcγRIIa; not shown: 6xHis and GST tags of the pTT5 vector
T1 sequence (looked up): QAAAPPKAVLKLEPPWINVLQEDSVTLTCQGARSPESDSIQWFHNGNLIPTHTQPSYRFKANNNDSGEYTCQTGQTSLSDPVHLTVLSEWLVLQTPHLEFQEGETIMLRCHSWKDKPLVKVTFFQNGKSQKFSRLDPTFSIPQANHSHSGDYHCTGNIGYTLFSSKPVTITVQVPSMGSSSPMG

Binder	Fold vs WT IgG1	Kd
B1	2.33 fold	369 nM
B2	416 fold	2.06 nM
B3	16.7 fold	51.3 nM
B4	253 fold	3.4 nM
B5	0.319 fold	2690 nM
B6	0.307 fold	2790 nM
B7	1.79 fold	481 nM
B8	1.58 fold	544 nM
B9	0.867 fold	990 nM
B10	0.853 fold	1010 nM

What follows are binders tested against T2, human FcγRIIa (131H), His- and GST-tagged (human, UniProt P12318 34-217) (assay: SPR).
T2 construct: also called H131 FcγRIIa; HIIa; not shown: 6xHis and GST tags of the pTT5 vector
T2 sequence (looked up): T1 sequence (looked up) with R134H

Binder	Fold vs WT IgG1	Kd
B1	3.76 fold	172 nM
B2	1.71 fold	378 nM
B4	0.826 fold	783 nM

Each binder was assayed against T3, human FcγRIIb receptor protein (R&D Systems) (human, UniProt P31994 46-217) (assay: SPR).
T3 construct: Bought protein injected over captured antibody in Biacore; also called CD32b
T3 sequence (looked up): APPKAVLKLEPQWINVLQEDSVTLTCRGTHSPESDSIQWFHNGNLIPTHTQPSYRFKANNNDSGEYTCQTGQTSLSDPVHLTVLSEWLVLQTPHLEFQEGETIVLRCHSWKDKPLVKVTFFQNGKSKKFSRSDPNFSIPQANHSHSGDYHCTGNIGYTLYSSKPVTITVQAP

Binder	Fold vs WT IgG1	Kd	binding result
B1	1.02 fold	1440 nM	–
B2	428 fold	3.43 nM	–
B3	21.2 fold	69.1 nM	–
B4	344 fold	4.26 nM	–
B5	0.353 fold	4160 nM	–
B6	0.417 fold	3520 nM	–
B11	7.68 fold	191 nM	–
B7	1.17 fold	1250 nM	–
B8	–	–	no binding
B12	4.11 fold	357 nM	–
B13	14.4 fold	102 nM	–
B14	22.3 fold	65.9 nM	–
B9	1.45 fold	1010 nM	–
B10	0.729 fold	2010 nM	–
B15	14.2 fold	103 nM	–
B16	12.1 fold	121 nM	–

What follows are binders tested against T4, human FcγRIIIa (158V), His- and GST-tagged (human, UniProt P08637 17-208) (assay: SPR).
T4 construct: also called V158 FcγRIIIa; VIIIa; not shown: 6xHis and GST tags of the pTT5 vector
T4 sequence (P08637 17-208 F176V): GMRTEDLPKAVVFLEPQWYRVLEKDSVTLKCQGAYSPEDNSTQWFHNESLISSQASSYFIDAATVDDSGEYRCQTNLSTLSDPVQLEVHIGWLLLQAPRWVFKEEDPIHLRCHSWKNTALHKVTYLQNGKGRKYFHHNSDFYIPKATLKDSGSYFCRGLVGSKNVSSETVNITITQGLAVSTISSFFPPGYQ

Binder	Fold vs WT IgG1	Kd
B1	0.00367 fold	52.2 µM
B2	0.216 fold	0.887 µM
B3	0.00199 fold	96.3 µM
B4	0.092 fold	2.08 µM

What follows are binders tested against T5, human FcγRI receptor protein (R&D Systems) (human, UniProt P12314 16-288) (assay: SPR).
T5 construct: also called soluble FcγRI; solFcγRI

Binder	Fold vs WT IgG1	Kd
B1	0.0268 fold	12.3 nM
B2	1.45 fold	0.227 nM
B3	1.66 fold	0.198 nM
B4	0.991 fold	0.333 nM

Molecular target: T6, mFcγRIV
T6 construct: also called mouse FcγRIV; not shown: C-terminal His and GST tags (named only on our card)
T6 chain: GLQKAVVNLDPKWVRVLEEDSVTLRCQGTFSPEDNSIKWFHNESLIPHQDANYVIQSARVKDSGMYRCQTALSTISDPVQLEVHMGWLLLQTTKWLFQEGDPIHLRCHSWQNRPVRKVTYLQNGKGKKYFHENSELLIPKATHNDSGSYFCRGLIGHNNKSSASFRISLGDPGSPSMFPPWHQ
Experiment: SPR

Binder	Fold vs WT IgG1 (off-rate)	Fold vs WT IgG1 (Kd)
B5	1.23 fold	–
B6	0.526 fold	–
B11	–	0.443 fold
B7	1.02 fold	–
B8	1.08 fold	–
B12	1.57 fold	–
B13	2.21 fold	1.06 fold
B14	1.88 fold	1 fold
B9	1.07 fold	–
B10	0.711 fold	–
B15	–	0.598 fold
B16	0.454 fold	–

Each binder was assayed against T7, cynoFcγRIIb (Macaca fascicularis, UniProt A0A140HDP4) (assay: SPR).
T7 construct: extracellular region, C-terminal His- and GST-tag; also called cynomolgus monkey FcγRIIb
T7 sequence (receptor extracellular region): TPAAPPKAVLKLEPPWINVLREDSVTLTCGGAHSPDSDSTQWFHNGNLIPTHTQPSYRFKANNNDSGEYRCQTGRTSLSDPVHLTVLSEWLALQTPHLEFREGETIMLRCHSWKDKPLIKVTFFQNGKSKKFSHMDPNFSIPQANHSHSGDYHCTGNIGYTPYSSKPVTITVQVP

Binder	Fold vs WT IgG1 (Kd)	Fold vs WT IgG1 (off-rate)
B1	3.55 fold	–
B2	4.58 fold	–
B3	–	0.697 fold
B4	3.51 fold	–
B5	–	0.903 fold
B6	–	0.648 fold
B11	1.47 fold	1.8 fold
B7	–	1.34 fold
B8	–	0.864 fold
B14	1.79 fold	–
B9	–	0.66 fold
B10	–	0.401 fold
B15	1.86 fold	1.96 fold
B16	–	0.367 fold

The binders below were run against T8, cynoFcγRIIIa (Macaca fascicularis, UniProt Q8SPW2) (assay: SPR).
T8 construct: extracellular region, C-terminal His- and GST-tag; also called cynomolgus monkey FcγRIIIa
T8 sequence (Q8SPW2 17-208): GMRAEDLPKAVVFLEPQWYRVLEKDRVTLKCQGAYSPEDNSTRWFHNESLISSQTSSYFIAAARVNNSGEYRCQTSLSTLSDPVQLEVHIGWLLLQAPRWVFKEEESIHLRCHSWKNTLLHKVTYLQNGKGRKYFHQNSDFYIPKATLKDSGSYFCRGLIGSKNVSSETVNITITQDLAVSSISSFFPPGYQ

Binder	Fold vs WT IgG1 (Kd)	Fold vs WT IgG1 (off-rate)
B1	1.45 fold	–
B2	1.17 fold	–
B4	1.04 fold	–
B5	–	0.443 fold
B6	–	0.636 fold
B11	1.73 fold	–
B7	–	0.99 fold
B8	–	0.983 fold
B12	–	1.41 fold
B13	8.68 fold	3.62 fold
B14	7.66 fold	2.73 fold
B9	–	1.15 fold
B10	–	0.622 fold
B15	5.33 fold	–
B16	–	0.124 fold

What follows are binders tested against T9, mFcγRIIb (Mus musculus, UniProt P08101) (assay: SPR).
T9 construct: extracellular region, C-terminal His- and GST-tag; also called mouse FcγRII
T9 sequence (receptor extracellular region, looked up): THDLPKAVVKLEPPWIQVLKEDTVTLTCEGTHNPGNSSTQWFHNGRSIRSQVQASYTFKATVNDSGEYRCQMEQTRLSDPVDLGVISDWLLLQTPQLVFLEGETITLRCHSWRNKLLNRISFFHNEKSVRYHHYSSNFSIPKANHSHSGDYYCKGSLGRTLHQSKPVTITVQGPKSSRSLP

Binder	Fold vs WT IgG1 (off-rate)	Fold vs WT IgG1 (Kd)
B3	0.971 fold	–
B5	1.45 fold	–
B6	0.833 fold	–
B11	5.09 fold	3.22 fold
B7	1.6 fold	–
B8	0.877 fold	–
B14	–	1.98 fold
B9	0.61 fold	–
B10	1.74 fold	–
B15	0.968 fold	0.902 fold
B16	0.881 fold	–
